In experiment [1] the target is human ANG2 protein (623-AN-025/CF, R&D) (human) (UniProt O15123). In words: cell-based or functional assay.
Experiment [2] has the same target. In words: flow cytometry, inhibition of human ANG2 (10 µg/mL) binding to HUVEC cells.

Chain of human ANG2 protein (623-AN-025/CF, R&D) (human) (O15123 19-496 limits assumed): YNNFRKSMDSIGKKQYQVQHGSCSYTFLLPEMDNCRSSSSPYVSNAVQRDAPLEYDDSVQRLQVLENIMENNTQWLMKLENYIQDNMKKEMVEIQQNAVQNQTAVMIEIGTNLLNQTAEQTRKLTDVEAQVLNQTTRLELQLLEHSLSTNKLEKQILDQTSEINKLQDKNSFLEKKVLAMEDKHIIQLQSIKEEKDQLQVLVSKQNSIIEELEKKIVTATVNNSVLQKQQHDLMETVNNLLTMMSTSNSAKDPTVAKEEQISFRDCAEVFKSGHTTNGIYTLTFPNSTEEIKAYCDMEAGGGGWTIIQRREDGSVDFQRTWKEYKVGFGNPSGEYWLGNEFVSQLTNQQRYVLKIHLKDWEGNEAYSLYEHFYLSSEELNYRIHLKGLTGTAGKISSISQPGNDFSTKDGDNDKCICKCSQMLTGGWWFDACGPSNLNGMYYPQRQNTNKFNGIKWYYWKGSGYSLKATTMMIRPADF

Consider “RG7716 (ATAD00534, Atagenix) (bispecific antibody)”, for which the IC50 of inhibition of AKT phosphorylation of human ANG2-dependent HUVEC cells in experiment [1] stood at 27.3 nM. For the same substance, the IC50 (as a rule, the point on the concentration scale where inhibition reaches its midpoint) in experiment [2] was 53.9 nM.

The values above are taken from patent US20240425575A1.
